Measurements from patent US20200040059A1.
Each block holds one binder with its values, some of them ahead of it.

Columns and labels:
CD96 [1] = molecular target: T1, CD96 (UniProt P40200); assay: flow cytometry, CD96-expressing cells
T1 sequence (looked up): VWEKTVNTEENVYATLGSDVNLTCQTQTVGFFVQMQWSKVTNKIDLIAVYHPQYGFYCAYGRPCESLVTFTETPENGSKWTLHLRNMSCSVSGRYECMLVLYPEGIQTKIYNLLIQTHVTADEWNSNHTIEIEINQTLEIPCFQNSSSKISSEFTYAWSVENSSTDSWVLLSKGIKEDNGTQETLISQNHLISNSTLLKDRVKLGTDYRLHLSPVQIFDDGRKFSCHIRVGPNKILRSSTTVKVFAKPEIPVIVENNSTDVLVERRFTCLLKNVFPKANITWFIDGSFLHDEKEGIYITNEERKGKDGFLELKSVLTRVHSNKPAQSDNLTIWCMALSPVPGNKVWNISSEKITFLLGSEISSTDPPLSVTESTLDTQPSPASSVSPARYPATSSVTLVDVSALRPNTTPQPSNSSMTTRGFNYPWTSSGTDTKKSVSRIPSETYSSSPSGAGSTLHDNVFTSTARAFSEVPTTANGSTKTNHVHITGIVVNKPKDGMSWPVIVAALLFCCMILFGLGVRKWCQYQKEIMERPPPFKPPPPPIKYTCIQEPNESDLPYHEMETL

CD96 [2] = molecular target: T1, CD96; assay: flow cytometry, cells
CD226 (human) [3] = molecular target: T2, CD226 (human) (UniProt Q15762); assay: flow cytometry, transfected cells
T2 sequence: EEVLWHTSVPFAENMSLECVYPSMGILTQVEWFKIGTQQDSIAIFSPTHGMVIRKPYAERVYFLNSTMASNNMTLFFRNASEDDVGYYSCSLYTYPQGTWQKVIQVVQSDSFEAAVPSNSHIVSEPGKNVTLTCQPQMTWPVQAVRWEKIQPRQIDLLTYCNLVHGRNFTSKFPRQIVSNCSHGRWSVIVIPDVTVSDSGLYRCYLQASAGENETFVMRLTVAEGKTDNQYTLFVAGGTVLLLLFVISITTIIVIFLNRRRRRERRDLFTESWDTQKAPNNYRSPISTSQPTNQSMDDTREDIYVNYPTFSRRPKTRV

CD226 (human) [4] = molecular target: T2, CD226 (human); assay: flow cytometry, cells expressing target, 25 nM
CD96 [5] = molecular target: T1, CD96; assay: flow cytometry, cells expressing target, 25 nM
CD112R (human) = CD112R (human) (UniProt Q6DKI7); assay: flow cytometry, cells expressing target, 25 nM
CD112R (human), sequence (Q6DKI7 whole entry): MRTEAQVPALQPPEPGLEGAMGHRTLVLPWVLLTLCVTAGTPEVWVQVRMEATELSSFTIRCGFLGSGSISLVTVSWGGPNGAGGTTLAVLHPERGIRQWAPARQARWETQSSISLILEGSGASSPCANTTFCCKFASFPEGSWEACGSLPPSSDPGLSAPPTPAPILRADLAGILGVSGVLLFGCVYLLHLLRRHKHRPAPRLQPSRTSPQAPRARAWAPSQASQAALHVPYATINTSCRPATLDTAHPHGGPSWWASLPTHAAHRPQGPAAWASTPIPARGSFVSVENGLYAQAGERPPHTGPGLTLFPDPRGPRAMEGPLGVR

TIGIT (human) = molecular target: T3, TIGIT (human) (UniProt Q495A1); assay: flow cytometry, cells expressing target, 25 nM
T3 sequence: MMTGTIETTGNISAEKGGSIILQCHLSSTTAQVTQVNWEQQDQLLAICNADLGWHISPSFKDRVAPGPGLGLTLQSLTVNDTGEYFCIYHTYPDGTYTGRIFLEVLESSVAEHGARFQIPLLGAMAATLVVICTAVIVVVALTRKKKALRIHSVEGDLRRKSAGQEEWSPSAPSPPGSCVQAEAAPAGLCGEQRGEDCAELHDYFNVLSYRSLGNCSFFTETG

CD226 (human) [6] = molecular target: T2, CD226 (human); assay: flow cytometry, CD226-expressing cells

MFI at 100 nM (CD96 [1]): 22800 MFI
B1: CD155 variant IgV-Fc P18T, T45Q, T61R, S65N, S67L (Fc fusion, not shown: a dimerising Fc or GST; small tags and cut ends)
chain: PGTGDVVVQAPTQVTGFLGDSVTLPCYLQVPNMEVTHVSQLQWARHGESGSMAVFHQRQGPNYLESKRLEFVAARLGAELRNASLRMFGLRVEDEGNYTCLFVTFPQGSRSVDIWL

MFI (CD96 [2]): 191000
MFI (CD226 (human) [3]): 436000
B2: CD155 P18T, T45A, F91S IgV-Fc (Fc fusion, not shown: a dimerising Fc or GST; small tags and cut ends)
chain: PGTGDVVVQAPTQVTGFLGDSVTLPCYLQVPNMEVTHVSQLAWARHGESGSMAVFHQTQGPSYSESKRLEFVAARLGAELRNASLRMSGLRVEDEGNYTCLFVTFPQGSRSVDIWL

MFI at 25 nM (CD226 (human) [4]): 79400 MFI
MFI at 25 nM (CD96 [5]): 44500 MFI
MFI at 25 nM (CD112R (human)): 1010 MFI
MFI at 25 nM (TIGIT (human)): 131000 MFI
B3: CD155 variant IgV-Fc P18S, H59R, A76G, R78S, L79P (Fc fusion, not shown: a dimerising Fc or GST; large carriers; small tags and cut ends)
chain: PGTGDVVVQAPTQVSGFLGDSVTLPCYLQVPNMEVTHVSQLTWARHGESGSMAVFRQTQGPSYSESKRLEFVGASPGAELRNASLRMFGLRVEDEGNYTCLFVTFPQGSRSVDIWL

MFI (CD96 [2]): 119000
MFI (CD226 (human) [3]): 358000
B4: CD155 A13E, P18S, A56V, F91S IgV-Fc (Fc fusion, not shown: a dimerising Fc or GST; small tags and cut ends)
chain: PGTGDVVVQEPTQVSGFLGDSVTLPCYLQVPNMEVTHVSQLTWARHGESGSMVVFHQTQGPSYSESKRLEFVAARLGAELRNASLRMSGLRVEDEGNYTCLFVTFPQGSRSVDIWL

MFI (CD96 [2]): 168000
MFI (CD226 (human) [3]): 438000
B5: CD155 P18T, F91S, G111D IgV-Fc (Fc fusion, not shown: a dimerising Fc or GST; small tags and cut ends)
chain: PGTGDVVVQAPTQVTGFLGDSVTLPCYLQVPNMEVTHVSQLTWARHGESGSMAVFHQTQGPSYSESKRLEFVAARLGAELRNASLRMSGLRVEDEGNYTCLFVTFPQDSRSVDIWL

MFI at 25 nM (CD226 (human) [4]): 30900 MFI
MFI at 25 nM (CD96 [5]): 109000 MFI
MFI at 25 nM (CD112R (human)): 874 MFI
MFI at 25 nM (TIGIT (human)): 64100 MFI
B6: CD155 variant IgV-Fc P18T, D23G, Q60R, S67L, L79P, F91S, T107M, V115A (Fc fusion, not shown: a dimerising Fc or GST; small tags and cut ends)
chain: PGTGDVVVQAPTQVTGFLGGSVTLPCYLQVPNMEVTHVSQLTWARHGESGSMAVFHRTQGPSYLESKRLEFVAARPGAELRNASLRMSGLRVEDEGNYTCLFVMFPQGSRSADIWL

MFI at 11.1 nM (CD226 (human) [6]): 974 MFI
MFI at 11.1 nM (CD96 [1]): 923 MFI
B7: CD155 variant IgV-Fc V11A, P18S, L79P, F91S, L104M, G111R (Fc fusion, not shown: a dimerising Fc or GST; small tags and cut ends)
chain: PGTGDVVAQAPTQVSGFLGDSVTLPCYLQVPNMEVTHVSQLTWARHGESGSMAVFHQTQGPSYSESKRLEFVAARPGAELRNASLRMSGLRVEDEGNYTCMFVTFPQRSRSVDIWL

MFI at 11.1 nM (CD226 (human) [6]): 1130 MFI
MFI at 11.1 nM (CD96 [1]): 963 MFI
B8: CD155 variant IgV-Fc P18T, M36T, S65A, S67E, L79Q, A81T, F91S, G111R (Fc fusion, not shown: a dimerising Fc or GST; small tags and cut ends)
chain: PGTGDVVVQAPTQVTGFLGDSVTLPCYLQVPNTEVTHVSQLTWARHGESGSMAVFHQTQGPAYEESKRLEFVAARQGTELRNASLRMSGLRVEDEGNYTCLFVTFPQRSRSVDIWL

MFI (CD96 [2]): 56900
MFI (CD226 (human) [3]): 382000
B9: CD155 P18S, Y30C, F91S IgV-Fc (Fc fusion, not shown: a dimerising Fc or GST; small tags and cut ends)
chain: PGTGDVVVQAPTQVSGFLGDSVTLPCCLQVPNMEVTHVSQLTWARHGESGSMAVFHQTQGPSYSESKRLEFVAARLGAELRNASLRMSGLRVEDEGNYTCLFVTFPQGSRSVDIWL

MFI (CD96 [2]): 154000
MFI (CD226 (human) [3]): 238000
B10: CD155 P18T, Q60K IgV-Fc (Fc fusion, not shown: a dimerising Fc or GST; small tags and cut ends)
chain: PGTGDVVVQAPTQVTGFLGDSVTLPCYLQVPNMEVTHVSQLTWARHGESGSMAVFHKTQGPSYSESKRLEFVAARLGAELRNASLRMFGLRVEDEGNYTCLFVTFPQGSRSVDIWL
